The assay has as its target FITC-BIM BH3 (FITC at the N-terminus). As to the kind of experiment: fluorescence polarisation.

B1: BCL-2ΔLΔC WT (domain or fragment, human)
chain: MAHAGRTGYDNREIVMKYIHYKLSQRGYEWDAGDDVEENRTEAPEGTESEVVHLTLRQAGDDFSRRYRRDFAEMSSQLHLTPFTARGRFATVVEELFRDGVNWGRIVAFFEFGGVMCVESVNREMSPLVDNIALWMTEYLNRHLHTWIQDNGGWDAFVELYGPSMRA
Take B1: the EC90 came to 8.6 nM.

B2: BCL-2ΔLΔC V156D (domain or fragment, human)
chain: MAHAGRTGYDNREIVMKYIHYKLSQRGYEWDAGDDVEENRTEAPEGTESEVVHLTLRQAGDDFSRRYRRDFAEMSSQLHLTPFTARGRFATVVEELFRDGVNWGRIVAFFEFGGDMCVESVNREMSPLVDNIALWMTEYLNRHLHTWIQDNGGWDAFVELYGPSMRA
Consider B2, for which it took 17 nM to reach the 90% level (EC90).

B3: BCL-2ΔLΔC F104L (domain or fragment, human)
chain: MAHAGRTGYDNREIVMKYIHYKLSQRGYEWDAGDDVEENRTEAPEGTESEVVHLTLRQAGDDLSRRYRRDFAEMSSQLHLTPFTARGRFATVVEELFRDGVNWGRIVAFFEFGGVMCVESVNREMSPLVDNIALWMTEYLNRHLHTWIQDNGGWDAFVELYGPSMRA
B3 registered an EC90 of 1.6 nM.

B4: BCL-2ΔLΔC R129L (domain or fragment, human)
chain: MAHAGRTGYDNREIVMKYIHYKLSQRGYEWDAGDDVEENRTEAPEGTESEVVHLTLRQAGDDFSRRYRRDFAEMSSQLHLTPFTARGLFATVVEELFRDGVNWGRIVAFFEFGGVMCVESVNREMSPLVDNIALWMTEYLNRHLHTWIQDNGGWDAFVELYGPSMRA
B4 registered an EC90 of 8.7 nM.

B5: BCL-2ΔLΔC D103Y (domain or fragment, human)
chain: MAHAGRTGYDNREIVMKYIHYKLSQRGYEWDAGDDVEENRTEAPEGTESEVVHLTLRQAGDYFSRRYRRDFAEMSSQLHLTPFTARGRFATVVEELFRDGVNWGRIVAFFEFGGVMCVESVNREMSPLVDNIALWMTEYLNRHLHTWIQDNGGWDAFVELYGPSMRA
In the case of B5, the EC90 is 21 nM.

B6: BCL-2ΔLΔC A113G (domain or fragment, human)
chain: MAHAGRTGYDNREIVMKYIHYKLSQRGYEWDAGDDVEENRTEAPEGTESEVVHLTLRQAGDDFSRRYRRDFGEMSSQLHLTPFTARGRFATVVEELFRDGVNWGRIVAFFEFGGVMCVESVNREMSPLVDNIALWMTEYLNRHLHTWIQDNGGWDAFVELYGPSMRA
Regarding B6, the EC90 worked out at 23 nM.

B7: BCL-2ΔLΔC G101V (domain or fragment, human)
chain: MAHAGRTGYDNREIVMKYIHYKLSQRGYEWDAGDDVEENRTEAPEGTESEVVHLTLRQAVDDFSRRYRRDFAEMSSQLHLTPFTARGRFATVVEELFRDGVNWGRIVAFFEFGGVMCVESVNREMSPLVDNIALWMTEYLNRHLHTWIQDNGGWDAFVELYGPSMRA
In turn, B7 showed an EC90 of 5.8 nM.

Broadly, the EC90 is the concentration needed for an effect of 90%. Low readings indicate an effect from little substance, high ones a need for much substance.

These data come from article PMC12480952 (Nature Communications, 2025).
